Measurements taken from patent US10251942B2, “Immunity-inducing agent” (TORAY INDUSTRIES, INC., priority 2009, dated 2019).
Where a SMILES comes first, the peptide text is derived from it.

Tests used:
[1] = system: malignant brain tumor cell line T98G; assay: Chromium 51 release cytotoxicity of peptide-stimulated CD8-positive T cells; type: cell-based, human; conditions: 10^5 T cells and 10^3 T98G cells, 4 hours
Procedure: In a 50-ml centrifuge tube, 10^5 cells of a malignant brain tumor cell line T98G, whose expression of PDS5A had been confirmed (Stein G H et al., J. Cell Physiol., 99: 43-54 (1979), purchased from ATCC), were collected, and 100 μCi of chromium 51 was added to the tube, followed by incubation at 37° C. for 2 hours. […] Thereafter, the amount of chromium 51 released from damaged tumor cells into the culture supernatant was measured, and thereby the cytotoxic activity of the CD8-positive T cells stimulated with each of the polypeptides shown in SEQ ID NOs:27 to 35 was calculated.
The cytotoxic activity was determined by, as described above, mixing 10^5 CD8-positive T cells stimulated and induced with each of the peptides of the present invention and 10^3 cells of a malignant brain tumor cell line T98G to which chromium 51 was incorporated; culturing the resultant for 4 hours; measuring the amount of chromium 51 released into the culture medium after the culturing; and calculating the cytotoxic activity of the CD8-positive T cells against T98G according to the following equation*. cytotoxic activity (%)=(Amount of chromium 51 released from T98G when CD8-positive T cells were added)/(Amount of chromium 51 released from the target cells to which 1N hydrochloric acid was added)×100. *Equation: […]

[2] = system: epidermal squamous cell carcinoma; assay: Anti-tumor effect of canine recombinant PDS5A protein in patient dog, epidermal squamous cell carcinoma; type: in vivo; conditions: 500 μg protein with Freund's incomplete adjuvant, subcutaneous near tumor, 4 times at 1-week interval; tumor about 280 mm^3 at administration
Procedure: (§1) With 500 μg (2.5 ml) of the canine recombinant PDS5A protein purified as described in Example 5 below, the same amount of Freund's incomplete adjuvant (manufactured by Wako Pure Chemical Industries, Ltd.) was mixed to prepare a therapeutic agent for cancer, and this therapeutic agent was subcutaneously administered in the vicinity of the tumor in 1 individual each of patient dogs suffering from perianal adenocarcinoma and epidermal squamous cell carcinoma a total of 4 times at 1-week interval.

perianal adenocarcinoma = assay: Anti-tumor effect of canine recombinant PDS5A protein in patient dog, perianal adenocarcinoma; type: in vivo; conditions: 500 μg protein with Freund's incomplete adjuvant, subcutaneous near tumor, 4 times at 1-week interval; tumor about 370 mm^3 at administration
Procedure: as §1

mammary gland tumor = assay: Anti-tumor effect of recombinant PDS5A protein in tumor-bearing dog, mammary gland tumor; type: in vivo; conditions: 500 μg protein with same amount of Freund's incomplete adjuvant, regional lymph node near tumor, 3 times at 1-week intervals; tumor about 500 mm^3 (dog-derived) or 1000 mm^3 (human-derived) at administration
Procedure: The anti-tumor effect of the recombinant protein described in Example 5 below in 3 individuals of tumor-bearing patient dogs (3 individuals having a mammary gland tumor) having a tumor mass in the epidermis was evaluated. Before administration, the antibody titer against the recombinant protein in the serum of each patient dog was measured by the method described in Example 5 (3), and, as a result, an antibody titer higher than that of a healthy dog was detected.
With 500 μg (2.5 ml) each of the recombinant PDS5A proteins (dog-derived and human-derived) purified as described above, the same amount of Freund's incomplete adjuvant (manufactured by Wako Pure Chemical Industries, Ltd.) was mixed to prepare 2 kinds of therapeutic agents for cancer, each of which was administered to a regional lymph node in the vicinity of the tumor a total of 3 times at 1-week intervals. […] On the other hand, in the negative control group to which PBS(−) was administered, the tumor volume, which had been about 800 mm^3 at the time of administration of PBS, became 1625 mm^3 on Day 21 after the administration.

Row | Molecule | cytotoxic activity of stimulated CD8-positive T cells against T98G [1] | day on which complete regression of the tumor was achieved [2] | day on which complete regression of the tumor was achieved (perianal adenocarcinoma) | day on which complete regression of the tumor was achieved (mammary gland tumor)
1 | CC(C)C[C@H](NC(=O)[C@H](CCCCN)NC(=O)[C@H](Cc1ccc(O)cc1)NC(=O)[C@H](C)NC(=O)[C@H](CO)NC(=O)[C@H](CS)NC(=O)[C@H](CS)NC(=O)[C@H](CCC(N)=O)NC(=O)[C@@H](N)CC(C)C)C(=O)O [SEQ ID NO:36] (H-LQCCSAYKL-OH) | no cytotoxic activity |  |  | 
2 | canine recombinant PDS5A protein: full-length canine PDS5A (SEQ ID NO:2) expressed in E. coli; given mixed with Freund's incomplete adjuvant (protein, listed as Canis familiaris, mixed with Freund's incomplete adjuvant) MDFTAQPKPATALCGVVSADGKIAYPPGVKEITDKITTDEMIKRLKMVVKTFMDMDQDSEDEKQQYLPLALHLASEFFLRNPNKDVRLLVACCLADIFRIYAPEAPYTSHDKLKDIFLFITRQLKGLEDTKSPQFNRYFYLLENLAWVKSYNICFELEDCNEIFIQLFRTLFSVINNSHNKKVQMHMLDLMSSIIMEGDGVTQELLDSILINLIPAHKNLNKQSFDLAKVLLKRTVQTIEACIANFFNQVLVLGRSSVSDLSEHVFDLIQELFAIDPHLLLSVMPQLEFKLKSNDGEERLAVVRLLAKLFGSKDSDLATQNRPLWQCFLGRFNDIHVPVRLESVKFASHCLMNHPDLAKDLTEYLKVRSHDPEEAIRHDVIVTIITAAKRDLALVNDQLLGFVRERTLDKRWRVRKEAMMGLAQLYKKYCLHGEAGKEAAEKVSWIKDKLLHIYYQNSIDDKLLVEKIFAQYLVPHNLETEERMKCLYYLYASLDPNAVKALNEMWKCQNMLRSHVRELLDLHKQPTSEANCSAMFGKLMTIAKNLPDPGKAQDFVKKFNQVLGDDEKLRSQLELLISPTCSCKQADVCVREIARKLANPKQPTNPFLEMVKFLLERIAPVHIDSEAISALVKLMNKSIEGTADDEEEGVSPDTAIRSGLELLKVLSFTHPTSFHSAETYESLLQCLRMEDDKVAEAAIQIFRNTGHKIETDLPQIRSTLIPILHQKAKRGTPHQAKQAVHCIHAIFTNKEVQLAQIFEPLSRSLNADVPEQLITPLVSLGHISMLAPDQFASPMKSVVANFIVKDLLMNDRSTGEKNGKLWSPDEEVSPEVLAKVQAIKLLVRWLLGMKNNQSKSANSTLRLLSAMLVSEGDLTEQKRISKSDMSRLRLAAGSAIMKLAQEPCYHEIITPEQFQLCALVINDECYQVRQIFAQKLHKALVKLLLPLEYMAIFALCAKDPVKERRAHARQCLLKNISIRREYIKQNPMATEKLLSLLPEYVVPYMIHLLAHDPDFTRSQDVDQLRDIKECLWFMLEVLMTKNENNSHAFMKKMAENIKLTKDAQSPDESKMNEKLYTVCDVALCVINSKSALCNADSPKDPVLPMKFFTQPEKDFCNDKSYISEETRVLLLTGKPKPAGVLGAVNKPLSATGRKPYVRSTGAETGSNINVNSELNPSTGNRSREQSSEAVETGVSENEENPVRIISVTPVKNIDPVKNKEINSDQTTQGNISSDRGKKRSVAAAGTENIQQKTDEKVDESGPPAPSKPRRGRRPKSESQGNATKNDDINKPLGKGRKRAAVSQESPGGLEAGNAKAPKLQDVAKKAVPAERQIDLQR |  | 42 days | 35 days | 13 days
